Measured values taken from US20240401082A1 (Sanofi, published 2024).

T1: human complement C1s enzyme (activated C1s) (human, UniProt P09871 16-437; P09871 438-688)
T1 sequence 1: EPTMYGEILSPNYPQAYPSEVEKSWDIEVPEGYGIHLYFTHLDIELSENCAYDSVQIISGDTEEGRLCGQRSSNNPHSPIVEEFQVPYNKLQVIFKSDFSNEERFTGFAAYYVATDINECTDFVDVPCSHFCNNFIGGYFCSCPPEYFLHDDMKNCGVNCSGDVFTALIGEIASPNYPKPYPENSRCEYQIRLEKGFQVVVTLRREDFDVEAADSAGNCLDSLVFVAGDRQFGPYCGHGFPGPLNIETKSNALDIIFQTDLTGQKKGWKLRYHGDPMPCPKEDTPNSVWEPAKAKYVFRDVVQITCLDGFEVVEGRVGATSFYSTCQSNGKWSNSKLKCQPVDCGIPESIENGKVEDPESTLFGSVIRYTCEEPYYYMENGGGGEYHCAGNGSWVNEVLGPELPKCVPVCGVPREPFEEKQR
T1 sequence 2: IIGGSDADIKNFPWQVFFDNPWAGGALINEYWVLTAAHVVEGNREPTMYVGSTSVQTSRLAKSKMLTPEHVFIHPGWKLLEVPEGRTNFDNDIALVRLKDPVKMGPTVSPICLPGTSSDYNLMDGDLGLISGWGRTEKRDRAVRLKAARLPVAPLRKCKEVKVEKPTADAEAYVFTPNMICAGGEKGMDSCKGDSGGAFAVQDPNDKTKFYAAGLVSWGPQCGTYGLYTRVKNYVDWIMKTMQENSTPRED


Tests used:
[1] = biological target: T2, human complement factor Bb (human, UniProt P00751 260-764); assay: cell-based or functional assay
[2] = biological target: T1, human complement C1s enzyme (activated …); assay: cell-based or functional assay
[3] = biological target: T2, human complement factor Bb; assay: cell-based or functional assay; remark: listed apart in the source
[4] = biological target: T1, human complement C1s enzyme (activated …); assay: cell-based or functional assay; remark: listed apart in the source
[5] = biological target: T2, human complement factor Bb; assay: BLI (Octet), biotinylated target on streptavidin sensor
Description: (§1) Bio-layer interferometry (BLI) was used to assess the recombinant proteins' target engagement to and binding affinity for complement C1s enzyme (active C1s or “C1s” herein) and factor Bb (Bb) (Complement Technology, Tyler, TX, USA). C1s and Bb were biotinylated with EZ-Link™ Sulfo-NHS-LC-LC-Biotin (Thermo Fisher, Waltham, MA, USA) according to manufacturer instructions. Biotinylated C1s or Bb was loaded on Octet® Streptavidin (SA) Biosensors (Sartorius, Göttingen, Germany), followed by a concentration range of purified proteins. To assess dual target engagement, biotinylated active C1s or Bb was loaded onto sensors, followed by purified proteins (“first association phase”), followed by the non-captured complement target (Bb or active C1s, non-biotinylated; “second association phase”). The assays were performed at 30° C. using PBS with 0.1% Tween 20 as a diluent (FIG. 3).

[6] = biological target: T1, human complement C1s enzyme (activated …); assay: as above
Description: as §1

[7] = biological target: T2, human complement factor Bb; assay: BLI (Octet), biotinylated target on streptavidin sensor; protein purified to >98%
Description: as §1

[8] = biological target: T1, human complement C1s enzyme (activated …); assay: as above
Description: as §1

[9] = biological target: T2, human complement factor Bb; assay: cell-based or functional assay; remark: listed apart in the source
[10] = biological target: T1, human complement C1s enzyme (activated …); assay: cell-based or functional assay; remark: listed apart in the source
[11] = biological target: T2, human complement factor Bb; assay: cell-based or functional assay; remark: listed apart in the source
[12] = biological target: T1, human complement C1s enzyme (activated …); assay: cell-based or functional assay; remark: listed apart in the source
[13] = biological target: T2, human complement factor Bb; assay: BLI (Octet), biotinylated target on streptavidin sensor; partially purified protein
Description: as §1
(§2) The third expression construct, construct #9 (FIGS. 2B and 21), is composed of a bidirectional minCBA promoter driving expression of separate transcripts encoding human codon-optimized αBb scFab or αC1s scFab [αC1s scFab+αBb scFab], each followed by a bGH poly (A) signal.

[14] = biological target: T1, human complement C1s enzyme (activated …); assay: as above
Description: as §1, §2

[15] = biological target: T1, human complement C1s enzyme (activated …); assay: SPR
[16] = biological target: T1, human complement C1s enzyme (activated …); assay: cell-based or functional assay; remark: listed apart in the source
[17] = biological target: T2, human complement factor Bb; assay: BLI dual target engagement: one target captured, then protein, then the other target
Description: as §1

[18] = biological target: T1, human complement C1s enzyme (activated …); assay: as above
Description: as §1

T2 sequence (P00751 260-764): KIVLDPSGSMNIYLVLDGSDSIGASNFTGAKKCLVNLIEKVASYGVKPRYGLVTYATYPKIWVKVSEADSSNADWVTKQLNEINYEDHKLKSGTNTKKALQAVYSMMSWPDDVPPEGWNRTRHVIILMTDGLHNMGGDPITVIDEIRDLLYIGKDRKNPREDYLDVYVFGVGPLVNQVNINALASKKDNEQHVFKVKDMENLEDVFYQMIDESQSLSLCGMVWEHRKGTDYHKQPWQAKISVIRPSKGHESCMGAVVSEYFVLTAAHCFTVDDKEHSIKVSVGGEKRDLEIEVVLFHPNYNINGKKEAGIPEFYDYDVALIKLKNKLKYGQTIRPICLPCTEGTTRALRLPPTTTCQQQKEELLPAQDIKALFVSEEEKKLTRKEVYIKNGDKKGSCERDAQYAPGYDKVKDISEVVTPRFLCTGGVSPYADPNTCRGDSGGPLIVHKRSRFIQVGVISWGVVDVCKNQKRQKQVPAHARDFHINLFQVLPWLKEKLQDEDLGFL

| Binder | IC50 AP (Wieslab) [1] [nM] | IC50 CP (Wieslab) [2] [nM] | IC50 AP Wieslab EIA [3] [nM] | IC50 CP Wieslab EIA [4] [nM] | Kd [5] [nM] | koff [5] [s⁻¹] | kon [5] [M⁻¹ s⁻¹] | Kd [6] [nM] | koff [6] [s⁻¹] | kon [6] [M⁻¹ s⁻¹] | Kd [7] [nM] | Kd [8] [nM] | AP IC50 (Wieslab) [9] [nM] | CP IC50 (Wieslab) [10] [nM] | Wieslab AP IC50, fold of purified anti-Bb Fab [11] [fold] | Wieslab CP IC50, fold of purified anti-C1s Fab [12] [fold] | Kd [13] [nM] | Kd [14] [nM] | other results |
| --- | --- | --- | --- | --- | --- | --- | --- | --- | --- | --- | --- | --- | --- | --- | --- | --- | --- | --- | --- |
| construct #12: αBb scFab-(G4S)3-αC1s scFab-CM (bispecific antibody, Residues 1-20 were left out as the signal peptide, which is marked by boldface only) DIQMTQSPSTLSASVGDRVTITCKASQDVGTAVAWYQKKPGKAPKLLIYWASTRHTGVPDRFSGSGSGTDFTLTISSLQAEDFAVYFCHQHSSNPLTFGQGTKLEIKRTVAAPAVFIFPPSDEQLKSGTASVVCLLKNFYPREAKVQWKVDNALQSGNSQESVTEQDSKDSTYSLSSTLTLSKADYEKHKVYACEVTHQGLSSPVTKSFNRGECGGGGSGGGGSGGGGSGGGGSGGGGSGGGGSGGGGSEVQLVESGGGLVKPGGSLRLSCAASGFTFSNYAMSWVREAPGKRLEWVATISNRGSYTYYPDSVKGRFTISRDNAKNSLYLQMNSLRAEDTALYYCARERPMDYWGQGTLVTVSSASTKGPSVFPLAPCSRSTSESTAALGCLVKDYFPEPVTVSWNSGALTSGVHTFPAVLQSSGLYSLSSVVEVPSSSLGTKTYTCNVDHKPSNTKVDKRVGGGGGSGGGGSGGGGSDIVLTQSPDSLAVSLGERATISCKASQSVDYDGDSYMNWYQEKPGQPPKILIYDASNLESGIPARFSGSGSGTDFTLTISSLEPEDFAIYYCQQSNEDPWTFGGGTKVEIKRTVAAPSVFIFPPSDEQLKSGTASVVCLLNNFYPREAKVQWKVDNALQSGNSQESVTEQDSKDSTYSLSSTLTLSKADYEKHKVYACEVTHQGLSSPVTKSFNRGECGGGGSGGGGSGGGGSGGGGSGGGGSGGGGSGGGGSQVQLVQSGAEVKKPGASVKLSCTASGFNIKDDYIHWVKKAPGQGLEWIGRIDPADGHTKYAPKFQVKVTITADTSTSTAYLELSSLRSEDTAVYYCARYGYGREVFDYWGQGTTVTVSSASTKGPSVFPLAPCSRSTSESTAALGCLVKDYFPEPVTVSWNSGALTSGVHTFPAVLQSSGLYSLSSVVTVPSSSLGTKTYTCNVDHKPSNTKVDKRV | 702 | 84.4 | 428 | 10.4 | 6.6 | 0.00055 | 80000 | 3.6 | 0.00065 | 180000 | 1.5 | 5.4 | 702 | 84.4 | ~7 | ~14 | 6.6 | 3.6 | – |
| parental anti-C1s IgG4 antibody VH3/Vκ2 (antibody, V domains shown, IgG4, from WO 2018/071676; full chains of the mAb are not; also called anti-C1s mAb; VH3/VK2) VH: QVQLVQSGAEVKKPGASVKLSCTASGFNIKDDYIHWVKQAPGQGLEWIGRIDPADGHTKYAPKFQVKVTITADTSTSTAYLELSSLRSEDTAVYYCARYGYGREVFDYWGQGTTVTVSS VL: DIVLTQSPDSLAVSLGERATISCKASQSVDYDGDSYMNWYQQKPGQPPKILIYDASNLESGIPARFSGSGSGTDFTLTISSLEPEDFAIYYCQQSNEDPWTFGGGTKVEIK | – | – | – | – | – | – | – | – | – | – | – | – | – | – | – | – | – | – | Kd [15]: 1.5 nM; Wieslab classical pathway IC50 [16]: 22 nM |
| construct #18: αC1s GT2A Fab-(G4S)3-αBb scFab (bispecific antibody) light: DIVLTQSPDSLAVSLGERATISCKASQSVDYDGDSYMNWYQQKPGQPPKILIYDASNLESGIPARFSGSGSGTDFTLTISSLEPEDFAIYYCQQSNEDPWTFGGGTKVEIKRTVAAPSVFIFPPSDEQLKSGTASVVCLLNNFYPREAKVQWKVDNALQSGNSQESVTEQDSKDSTYSLSSTLTLSKADYEKHKVYACEVTHQGLSSPVTKSFNRGEC QVQLVQSGAEVKKPGASVKLSCTASGFNIKDDYIHWVKQAPGQGLEWIGRIDPADGHTKYAPKFQVKVTITADTSTSTAYLELSSLRSEDTAVYYCARYGYGREVFDYWGQGTTVTVSSASTKGPSVFPLAPCSRSTSESTAALGCLVKDYFPEPVTVSWNSGALTSGVHTFPAVLQSSGLYSLSSVVTVPSSSLGTKTYTCNVDHKPSNTKVDKRVGGGGSGGGGSGGGGSDIQMTQSPSTLSASVGDRVTITCKASQDVGTAVAWYQQKPGKAPKLLIYWASTRHTGVPDRFSGSGSGTDFTLTISSLQAEDFAVYFCHQHSSNPLTFGQGTKLEIKRTVAAPSVFIFPPSDEQLKSGTASVVCLLNNFYPREAKVQWKVDNALQSGNSQESVTEQDSKDSTYSLSSTLTLSKADYEKHKVYACEVTHQGLSSPVTKSFNRGECGGGGSGGGGSGGGGSGGGGSGGGGSGGGGSGGGGSEVQLVESGGGLVKPGGSLRLSCAASGFTFSNYAMSWVRQAPGKRLEWVATISNRGSYTYYPDSVKGRFTISRDNAKNSLYLQMNSLRAEDTALYYCARERPMDYWGQGTLVTVSSASTKGPSVFPLAPCSRSTSESTAALGCLVKDYFPEPVTVSWNSGALTSGVHTFPAVLQSSGLYSLSSVVTVPSSSLGTKTYTCNVDHKPSNTKVDKRV | – | – | – | – | – | – | – | – | – | – | – | – | – | – | – | – | – | – | binding result [17]: binds; binding result [18]: binds |
| construct #14: αC1s scFab-(G4S)2-αBb scFv-CM (bispecific antibody, Residues 1-20 were left out as the signal peptide, which is marked by boldface only) DIVLTQSPDSLAVSLGERATISCKASQSVDYDGDSYMNWYQEKPGQPPKILIYDASNLESGIPARFSGSGSGTDFTLTISSLEPEDFAIYYCQQSNEDPWTFGGGTKVEIKRTVAAPSVFIFPPSDEQLKSGTASVVCLLNNFYPREAKVQWKVDNALQSGNSQESVTEQDSKDSTYSLSSTLTLSKADYEKHKVYACEVTHQGLSSPVTKSFNRGECGGGGSGGGGSGGGGSGGGGSGGGGSGGGGSGGGGSQVQLVQSGAEVKKPGASVKLSCTASGFNIKDDYIHWVKKAPGQGLEWIGRIDPADGHTKYAPKFQVKVTITADTSTSTAYLELSSLRSEDTAVYYCARYGYGREVFDYWGQGTTVTVSSASTKGPSVFPLAPCSRSTSESTAALGCLVKDYFPEPVTVSWNSGALTSGVHTFPAVLQSSGLYSLSSVVTVPSSSLGTKTYTCNVDHKPSNTKVDKRVGGGGSGGGGSEVQLVESGGGLVKPGGSLRLSCAASGFTFSNYAMSWVREAPGKRLEWVATISNRGSYTYYPDSVKGRFTISRDNAKNSLYLQMNSLRAEDTALYYCARERPMDYWGQGTLVTVSSGGGGSGGGGSGGGGSDIQMTQSPSTLSASVGDRVTITCKASQDVGTAVAWYQKKPGKAPKLLIYWASTRHTGVPDRFSGSGSGTDFTLTISSLQAEDFAVYFCHQHSSNPLTFGQGTKLEIK | 551 | 38.6 | 347 | 5.9 | 2.5 | 0.00017 | 70000 | 1.4 | 0.00049 | 360000 | 4.2 | 1.3 | 551 | 38.6 | ~6 | ~6 | 2.5 | 1.4 | – |
